First the molecules themselves.
B1: S009-F1.35.24 (antibody, human IgG1, kappa, V domains shown)
VH: EVQLQQSEPELVKPGASVRISCKASGYSFTDYYMHWVKQSPENRLEWIGEINPSTGGTSYNPKFKDKATLTVDKSSSTAYMQLKSLTSEESAVYYCTRYHYYGSSSYVMDYWGQGTSVTVSS
VL: QIVLTQSPAILSASPGERVTMTCSASSSVYHMHWFQQKSGTSPKRWVYDTSKLASGVPARFSGSGSGTSYSLTISSMEAEDAATYYCQHWRTNPLTFGAGTKLELKR
notes: human-murine chimeric antibody, human IgG1/kappa constant regions
B2: S009-F2.17.3 (antibody, human IgG1, kappa, V domains shown)
VH: QVQLQQPGTELVTPGASVKLSCKASGYSFTSYWMHWVKQRPGQGLEWIGNINPSNGDTFYNEKFKNKATLTVDKSSSTAYMQLSSLTSEDSAVYYCARGWLRDYWGQGTTLTVSS
VL: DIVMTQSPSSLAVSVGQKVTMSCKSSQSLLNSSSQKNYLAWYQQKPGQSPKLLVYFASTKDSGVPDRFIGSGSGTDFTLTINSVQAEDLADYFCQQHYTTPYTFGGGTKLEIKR
notes: as for B1
B3: S009-F2.13.3 (antibody, human IgG1, kappa, V domains shown)
VH: QVQLQQSGAELMKPGASVKLSCKATGYTFTGYWIEWVKQRPGHGLEWIGEILPGSGSTNYNEKFKGKATFTADTSSNTAYMQLSSLTTEDSAIYYCARAGAWFAYWGQGTLVTVSA
VL: QIVLTQSPAIMSASLGERVTMTCTASSSVSSSYLHWYQQKPGSSPKLWTYSTSNLASGVPARFSGSGSGTSYSLTISSMEAEDAATYYCHQYHRSPWTFGGGTKLEIKR
notes: as for B1
B4: S009-F2.39.3 (antibody, human IgG1, kappa, V domains shown)
VH: QVQLQQPGTELVKPGASVKLSCKASGYTFTNYWMHWVKQRPGQGLEWIGNINPSSGDSYYNERFMSKAKMTVDKSSSTAYMQLSSLTSEDSAVYYCARSGGLWLAFWGPGTLVTVSA
VL: DIVMTQSPSSLAMSVGQKVTMSCKSSQTLLNSVSQNNYLAWYQQKPGQSPTLLVYFASTRESGVPDRFIGGGSGTDFTLTISSVQAEDLADYFCQQHYRTPYTFGGGTNLEIKR
notes: as for B1
B5: S009-F1.56.1 (antibody, human IgG1, kappa, V domains shown)
VH: EVQLQQSGAEVVKPGASVKLSCTASGFNIRHTYMHWVKQRPEQGLEWIGRIDPANGNTEYDPKFQGKATITADTSSNTAYLQLSSLTSEDTAVYYCARDGWYIDVWGAGTTVTVSS
VL: DIVMSQSPSSLAVSVGEKVTMSCKSSQSLLYSNNQKNYLAWYQQKPGQSPKLLIYWASTRESGVPDRFTGSGSGTDFTLTISSVKAEDLAVYYCQRYYSYPWTFGGGTKLEIKR
notes: as for B1
B6: S009-F2.23.12 (antibody, human IgG1, kappa, V domains shown)
VH: QVQLQQPGTELVKPGASVKLSCKASGYTFTNYWMHWVKQRPGQGLEWIGNINPSNGGPYYNERFRSKATLTVDKSSSTAYMQLSSLTSEDSAVYYCARPYYGSSYGYFDYWGQGTTLTVSS
VL: DIQMTQSPSSLSASLGGKVTITCKASQDINKYIAWYQHKPGKGPRLLIHYTSELQPGIPSRFSGNGSGRDYSFSISNLEPEDIATYYCLQYANPLRTFGGGTKLEIKR
notes: as for B1
B7: S009-F2.58.8 (antibody, human IgG1, kappa, V domains shown)
VH: QVQLLQSGAELAKPGASVKLSCKASGYTFTSYWVHWVKQRPGQGLEWIGYINPNSGYTKYNQKFKDKATLTADKSSSTAYMQLSSLTYEDSAVYYCADHYYGSSRDYFDYWGQGTTLTVSS
VL: QIVLTQSPAIMSASPGEKVTMTCSASSSVSYMYWYQQRPGSSPRLLIYDTSNLASGVPVRFSGSGSGTSYSLTISRMEAEDAATYYCQQWNSYPYTFGGGTKLEIKR
notes: as for B1

T1 sequence (Q13421 other isoform, or with tags, fused parts or gaps): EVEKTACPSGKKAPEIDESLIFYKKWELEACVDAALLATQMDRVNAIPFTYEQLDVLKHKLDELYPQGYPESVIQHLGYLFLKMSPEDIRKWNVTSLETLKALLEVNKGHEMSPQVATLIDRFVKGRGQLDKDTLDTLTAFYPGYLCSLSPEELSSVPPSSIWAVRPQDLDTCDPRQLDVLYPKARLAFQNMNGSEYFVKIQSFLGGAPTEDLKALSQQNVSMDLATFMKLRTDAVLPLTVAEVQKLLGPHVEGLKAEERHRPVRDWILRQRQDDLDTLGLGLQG

One test concerns the target T1, human MSLN-FL-his protein (human, UniProt Q13421 296-580).
T1 construct: made in HEK293E cells, purified on nickel column; also called hMSLN-FL-his; human MSLN full-length protein; not shown: His tag
In words: competitive ELISA; row F2.39.3. In general terms: ELISA stands for enzyme-linked immunosorbent assay.
On to B1, for which the competition rate was found to be 67%.

For the molecule B2, the competition rate turned out to be 106%.

On to B3, for which the competition rate amounted to 13%.

With B4, the competition rate came out at 105%.

With B5, the competition rate came to 69%.

For B6, the competition rate worked out at 97%.

As to B7, the competition rate came out at 91%.

The target of a further test is T1, human MSLN-FL-his protein. In words: competitive ELISA; row F1.56.1.
Experimental: (§1) In order to identify antigen-binding sites of antibodies, MSLN chimeric antibodies were grouped using competitive ELISA.
(§2) The chimeric antibodies were diluted to 2 μg/mL with PBS and allowed to coat 96-well high-adsorption ELISA plates at 50 μL/well. After the plates were coated at 4° C. overnight, 250 μL of a blocking buffer (PBS containing 2% (w/w) BSA) was added for two hours of blocking at room temperature. 40 μg/mL of the antibodies to be tested were added, and then the human MSLN-FL-His protein with an EC₈₀ concentration corresponding to each of the antibodies to be tested was added for incubation for 2 h. The plates were washed 5 times with PBS, an HRP-labeled anti-His secondary antibody (purchased from Genescript, Cat. No. A00612) was then added for incubation for 1 h, and the plates were washed 5 times again. A TMB substrate was added at 50 μL/well, and after 10 minutes of incubation at room temperature, a stop solution (1.0 M HCl) was added at 50 μL/well. OD₄₅₀ nm values were read using an ELISA plate reader (Insight, purchased from PerkinElmer), and the competition rate between the antibodies was calculated according to the OD₄₅₀ nm values using a formula.
Regarding B1, the competition rate is 97%.

In the case of B2, the competition rate was -56%.

Regarding B3, the competition rate is -426%.

With B4, the competition rate was -87%.

For B5, the competition rate is 104%.

As to B6, the competition rate came out at 24%.

B7: the competition rate came out at 104%.

A further test addresses T1, human MSLN-FL-his protein. The test can be described thus: competitive ELISA; row Tab142 (R1).
Experimental: as §1, §2
As for B1, the competition rate was 49%.

As for B2, the competition rate was 15%.

Take B3: the competition rate is -33%.

For B4, the competition rate turned out to be 19%.

Regarding B5, the competition rate worked out at 9%.

Take B6: the competition rate worked out at 23%.

As for B7, the competition rate is 46%.

For the next test, the target named is T1, human MSLN-FL-his protein. The test can be described thus: competitive ELISA; row F2.58.8.
Experimental: as §1, §2
For the molecule B1, the competition rate was determined as 100%.

Take B2: the competition rate turned out to be 78%.

Consider B3, for which the competition rate is -86%.

For the molecule B4, the competition rate came out at 97%.

In the case of B5, the competition rate is 107%.

On to B6, for which the competition rate was 69%.

Turning to B7, the competition rate was determined as 111%.

A further test concerns the target T1, human MSLN-FL-his protein. The test can be described thus: competitive ELISA; row Tab108 (R3).
Experimental: as §1, §2
Turning to B1, the competition rate is 62%.

Turning to B2, the competition rate was found to be 100%.

As for B3, the competition rate was -105%.

For B4, the competition rate was determined as 101%.

Take B5: the competition rate is -36%.

As to B6, the competition rate came to 85%.

For the molecule B7, the competition rate amounted to 60%.

The target in the next test is T1, human MSLN-FL-his protein. In words: competitive ELISA; row F1.35.24.
Experimental: as §1, §2
As to B1, the competition rate came out at 100%.

As for B2, the competition rate is 43%.

Take B3: the competition rate is 7%.

As for B4, the competition rate was found to be 47%.

With B5, the competition rate is 79%.

As for B6, the competition rate turned out to be 61%.

On to B7, for which the competition rate amounted to 96%.

Another test concerns the target T1, human MSLN-FL-his protein. The test can be described thus: competitive ELISA; row F2.16.10.
Experimental: as §1, §2
As to B1, the competition rate was found to be 31%.

Take B2: the competition rate was -8%.

On to B3, for which the competition rate is -41%.

Consider B4, for which the competition rate was determined as 4%.

With B5, the competition rate was -7%.

For the molecule B6, the competition rate was -42%.

As for B7, the competition rate came out at 41%.

The target of another test is T1, human MSLN-FL-his protein. In words: competitive ELISA; row Tab107 (conformation).
Experimental: as §1, §2
In the case of B1, the competition rate was 36%.

Consider B2, for which the competition rate was -1%.

Take B3: the competition rate was -54%.

In the case of B4, the competition rate was found to be 0%.

Regarding B5, the competition rate was -35%.

Consider B6, for which the competition rate came out at 3%.

Turning to B7, the competition rate was -6%.

The next test addresses T1, human MSLN-FL-his protein. In words: competitive ELISA; row F1.2.12.
Experimental: as §1, §2
For the molecule B1, the competition rate is -15%.

For the molecule B2, the competition rate was -182%.

With B3, the competition rate is 23%.

For the molecule B4, the competition rate is -208%.

On to B5, for which the competition rate was found to be 75%.

With B6, the competition rate is -70%.

In the case of B7, the competition rate was -133%.

For another test, the target named is T1, human MSLN-FL-his protein. The test can be described thus: SPR (Biacore), antibody captured on Protein A chip.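 Also: measured at 25 °C, analyte injected 240 s in five twofold dilutions from 200 nM, dissociation up to 600 s, double-referenced, fitted with Langmuir 1:1 model.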 A general note: In SPR one partner is held on a chip, and binding of the other changes the refractive index at the surface.
Experimental: The flow cell was set at 25° C. The sample block was set at 16° C. Both were pretreated with the running buffer. In each cycle, first, the antibody to be tested was captured using the Protein A chip, and then a single concentration of human MSLN-FL-his protein was injected. […] The association was determined by injecting different concentrations of human MSLN-FL-his in solution for 240 s on end, wherein the flow rate was 30 μL/min, and the protein was diluted in a 1:1 dilution ratio from 200 nM (see detailed results for actual concentrations tested) to obtain 5 concentrations in total. The dissociation phase was monitored for up to 600 s and triggered by switching from the sample solution to the running buffer. The surface was regenerated by washing with 10 mM glycine solution (pH 1.5) at a flow rate of 30 μL/min for 30 s. The difference in bulk refractive index was corrected by subtracting the responses obtained from the goat anti-human Fc surface. Blank injections were also subtracted (=double reference). To calculate the apparent KD and other kinetic parameters, the Langmuir 1:1 model was used.
In general, Kd refers to the free concentration of one partner at which half of the binding sites on the other are occupied at equilibrium, for simple one-to-one binding. A higher Kd goes with lower affinity. Usually koff stands for a measure of how fast the partners let go of each other. Broadly, the kon is a measure of how fast the partners come together. B1 had a Kd of 0.914 nM, a koff of 8.51e-05 s⁻¹ and a kon of 93100 M⁻¹ s⁻¹.

The molecule B2 gave an equilibrium dissociation constant (Kd) of 2.72 nM, a koff of 0.000174 s⁻¹ and a kon of 64100 M⁻¹ s⁻¹.

In turn, B3 registered a Kd of 8.65 nM, an off-rate constant (koff) of 0.00189 s⁻¹ and a kon of 219000 M⁻¹ s⁻¹.

In the case of B4, the affinity, expressed as Kd, was 3.06 nM; the koff was determined as 0.000122 s⁻¹; the kon turned out to be 40000 M⁻¹ s⁻¹.

On to B5, for which binding was put at a Kd of 0.889 nM, the koff turned out to be 0.00071 s⁻¹ and the kon was 799000 M⁻¹ s⁻¹.

Molecule B6 had a Kd of 8.71 nM, a koff of 0.000714 s⁻¹ and a kon of 81900 M⁻¹ s⁻¹.

For the molecule B7, the affinity, expressed as Kd, was 0.524 nM; the koff was found to be 0.000123 s⁻¹; the association rate constant (kon) was found to be 236000 M⁻¹ s⁻¹.

In a further test the target is T1, human MSLN-FL-his protein. The test can be described thus: competitive ELISA; row F2.13.3.
Experimental: as §1, §2
On to B1, for which the competition rate stood at 29%.

For the molecule B2, the competition rate is -814%.

In the case of B3, the competition rate was found to be 84%.

For B4, the competition rate was -525%.

On to B5, for which the competition rate is -588%.

On to B6, for which the competition rate is -1080%.

For the molecule B7, the competition rate was -396%.

For another test, the target named is T1, human MSLN-FL-his protein. The test can be described thus: competitive ELISA; row F2.24.10.
Experimental: as §1, §2
Take B1: the competition rate came to 13%.

On to B2, for which the competition rate was -13%.

Regarding B3, the competition rate is -65%.

For B4, the competition rate was -13%.

Regarding B5, the competition rate was -39%.

Consider B6, for which the competition rate worked out at 2%.

With B7, the competition rate was 6%.

For a further test, the target named is T1, human MSLN-FL-his protein. In words: competitive ELISA; row F2.17.3.
Experimental: as §1, §2
Consider B1, for which the competition rate was 59%.

For B2, the competition rate was 102%.

As for B3, the competition rate was -11%.

Consider B4, for which the competition rate is 107%.

Turning to B5, the competition rate was -6%.

In the case of B6, the competition rate was found to be 90%.

B7: the competition rate came out at 84%.

For the origin of these results see patent US20250250357A1 (NANJING ZAIMING PHARMACEUTICAL, published 2025).
